According to patent publication US6265535A, “Peptides and peptide analogues designed from binding sites of tumor necrosis factor receptor superfamily and their uses” (The Trustees of the University of Pennsylvania, priority 1997, dated 2001):
Bridge positions count the residues as written; N and C are the ends. Ends that are not written are not given here.

Tests used:
[1] = system: L929 cells; experiment: Cytotoxicity assay: inhibition of TNF-α-induced cytolysis of L929 cells (MTT); assay type: cell-based, murine; details: FIG. 7
Experimental: FIG. 7. Inhibition of TNF-α-induced cytolysis of L929 cells by peptides derived from TNF-R. […] A murine fibroblast cell line, L929, was maintained in Dulbecco's modified Eagle's medium supplemented with 10% FCS, and the medium was replaced with serum free AIM-V medium (GIBCO BRL) immediately before the cells were used for the cytotoxicity assay. L929 cells were seeded at a density of 2×10^5 cells/ml in 96-well microtiter plates, and incubated for hr. at 37° C. under 5% CO2 in air. […] Immunol. Methods 119:203). Briefly, 10 μl of a 10 mg/ml solution of MTT were added to each well for 2 hr. at 37° C., and the color of the formazan product was developed by an overnight incubation at 37° C. with 100 μl of extraction buffer (20% SDS in 50% DMF, pH 4.7). The optical density of colored formazan was measured at 600 nm.

[2] = biological target: T1, TNF-α binding to TNF-R p55 expressed on U937 cells (Homo sapiens, UniProt P01375); experiment: Flow cytometry (FACS) of TNF-α binding to its cognate receptor on U937 cells, detected with anti-TNF-R antibody htr-9; assay type: cell-based; details: FIG. 6
T1 construct: endogenous in cells; host or cells: U937 (human leukemia cell line)
T1 sequence (P01375 77-233 limits assumed): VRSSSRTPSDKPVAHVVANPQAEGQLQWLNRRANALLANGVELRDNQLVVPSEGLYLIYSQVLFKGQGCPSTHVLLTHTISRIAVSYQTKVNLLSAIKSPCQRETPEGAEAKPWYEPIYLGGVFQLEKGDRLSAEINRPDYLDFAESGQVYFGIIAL
Text: FIG. 5. […] 1=U937 cells stained with fluorescein-conjugated secondary antibody. 2=U937 cells stained with an anti-TNF receptor antibody (htr-9) and secondary antibody. 3=U937 cells stained with anti-TNF-R antibody in the presence of TNF-α and secondary antibody.
FIG. 6. […] The results represent the means from two independent experiments.
A human leukemia cell line, U937, was maintained in RPMI-1640 medium supplemented with 10% FCS. In order to quantitate the binding of TNF-α to its cognate receptor expressed on U937 cells, 1×10^5 cells were re-suspended in PBS containing 0.5% BSA and 0.05% NaN3 (binding buffer). […] Then, 50 μl of an anti-TNF receptor antibody at 3 μg/ml in binding buffer were added to the cells for 1 hr. at 4° C. The cells were washed in binding buffer and stained with 50 μl (10 μg/ml) of fluorescein-conjugated goat ant-mouse IgG secondary antibody (GIBCO BRL, Gaithersburg, Md.) for 30 min. at 4° C. in the dark. Following washing in binding buffer, the cells were analyzed using FACScan flow cytometer (Becton Dickinson). The gates were set on the live cell population, and the degree of inhibition of TNF-α/cell binding by peptides was calculated on the basis of mean values of each histogram.

[3] = biological target: T2, Human recombinant TNF-α (human, UniProt P01375); experiment: flow cytometry on U937 cells, TNF-α preincubated with peptide, read out with htr-9
[4] = biological target: T2, Human recombinant TNF-α; experiment: competitive radioreceptor assay, dose-response, 125I-TNF-α on immobilized TNF-R-IgG
[5] = biological target: T2, Human recombinant TNF-α; experiment: competitive radioreceptor assay, 125I-TNF-α on immobilized TNF-R-IgG

Molecule: CC(C)C[C@@H]1NC(=O)[C@H](Cc2ccc(O)cc2)NC(=O)[C@H](CCC(N)=O)NC(=O)[C@H](CO)NC(=O)[C@H](Cc2c[nH]c3ccccc23)NC(=O)[C@@H](NC(=O)[C@@H](N)Cc2ccc(O)cc2)CSSC[C@@H](C(=O)N[C@@H](Cc2ccc(O)cc2)C(=O)O)NC1=O [WP9QY, YC WSQYL CY]
- cells protected against TNF-α-induced apoptosis/cytotoxicity ([1]; peptide at 75 μM, TNF-α 50 pg/ml plus ACT-D 1 μg/ml): ~90%

Molecule: YC ASENH CY (YCASENHCY; disulfide 2-8 (inferred)) [WP5JY, exocyclic peptide from TNF-R loop 1 of domain 2]
- inhibition of TNF-α binding to U937 cells in dose-response assay (in words) [2]: inhibited by each peptide in a dose-dependent manner

Molecule: YC WSQNL CY (YCWSQNLCY; disulfide 2-8 (inferred)) [WP9Q, exocyclic peptide from TNF-R loop 1 of domain 3, Gln instead of Glu]
- inhibition of TNF-α-induced cytotoxicity of L929 cells (in words) [1]: dose-dependent inhibitory activity
- inhibitory effect on TNF-α-induced cytotoxicity relative to WP9QY [1]: about half of the effects of WP9QY
- inhibition of TNF-α binding to U937 cells in dose-response assay (in words) [2]: inhibited by each peptide in a dose-dependent manner

Molecule: YCWSQYLCY (disulfide 2-8 (inferred)) [WP9QY]
- IC50 [3]: 75 µM
- IC50 [4]: 5 µM

Molecule: YCWSQNLCY (disulfide 2-8 (inferred)) [WP9Q]
- fold activity against the best WP5 peptides [5]: 2 fold
